For 133 substances, amyloid nucleation score results are on record in the supplement of paper PMC12042874.

± gives the uncertainty stated by the source.

The data set can be described thus: amyloid nucleation score (Sup35N fusion, yeast selection) (log enrichment); library NNK3; higher = more nucleation; inactive = no reads after selection. The method, boiled down:
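The nucleation score is the log enrichment of output over input reads, calculated with DiMSum and centred on the mode score of non-aggregating sequences. Sequences with under 100 input reads were excluded. Reads came from Illumina sequencing of plasmid inserts from psi-negative yeast expressing Sup35N fused to peptides of 20 random codons, induced 24 hours with 100 μM copper sulfate and grown 7 days at 30°C without adenine and uracil.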
SLTALDNWCRIFAMPVLSWK: the amyloid nucleation score entry is “inactive”.

Consider KCMFSIFSGAASVLLKMFMV, for which the amyloid nucleation score entry is “inactive”.

With GCVAAMS, the amyloid nucleation score result is “inactive”.

In the case of NENTALSTWAPGYLINSYRA, the amyloid nucleation score result is “inactive”.

As to MYAVSGVNAQGWWLLADYEL, the amyloid nucleation score entry was “inactive”.

Take RMGHWCRVAGSKLLGVV: the amyloid nucleation score was -0.131 ± 1.2.

As for KYDCRGEMLFQ, the amyloid nucleation score result is “inactive”.

Consider TFRLKGALRKVVW, for which the amyloid nucleation score entry was “inactive”.

Take LWEDFLMVKSVVMN: the amyloid nucleation score entry was “inactive”.

As for GCGVC, the amyloid nucleation score was -0.609 ± 0.98.

Consider RTIRFRFIGWWLAIAEDCRG, for which the amyloid nucleation score entry was “inactive”.

For WDTILDLGGNDVEGSFPVTE, the amyloid nucleation score entry was “inactive”.

Take TLHIF: the amyloid nucleation score entry was “inactive”.

Take PHRFYYYWYSWCFILSNSCQ: the amyloid nucleation score result was “inactive”.

Turning to VCLFHDSLRDNYRT, the amyloid nucleation score entry is “inactive”.

SCVRHPIECLKWMTLTGEVV: the amyloid nucleation score entry was “inactive”.

For SSRSRTRWASNFLAHAYGRF, the amyloid nucleation score result was “inactive”.

With CFYMTSSDYQEGNG, the amyloid nucleation score entry was “inactive”.

As for VWTRTWLLMTCHCNRFKDCS, the amyloid nucleation score stood at 1.67 ± 0.12.

Consider MTQVQCLTSVNWKVTHVLHR, for which the amyloid nucleation score was determined as 1.29 ± 0.15.

For ALCSKGMGANSAKTK, the amyloid nucleation score entry was “inactive”.

With VMIDRWRNASNWIMFISHYR, the amyloid nucleation score is -0.611 ± 0.98.

With WLKNF, the amyloid nucleation score entry is “inactive”.

As for VLGILVDFDLIKV, the amyloid nucleation score result is “inactive”.

With AKCMSNYYERCVLNTERREL, the amyloid nucleation score entry is “inactive”.

As to KSCLCLSPRGFGTDSAAVKW, the amyloid nucleation score is 0.966 ± 0.12.

For the substance GGRVNWM, the amyloid nucleation score entry was “inactive”.

Turning to SNSFSSSLLCLDARD, the amyloid nucleation score entry was “inactive”.

On to TLFSSCGLVHLLNCMRWPPG, for which the amyloid nucleation score entry is “inactive”.

Take PEKMFPSPVTATRFANCVL: the amyloid nucleation score result is “inactive”.

In the case of FFEWRTGLFVLWLSEVTSLM, the amyloid nucleation score result is “inactive”.

On to NFPGLTASMIKCGGNQCYVG, for which the amyloid nucleation score entry was “inactive”.

With KTIFFMKGLVMSDDICSDRR, the amyloid nucleation score entry is “inactive”.

Regarding PYGICNLKF, the amyloid nucleation score result was “inactive”.

As for QLCGLAAWDFFCLVGHILKK, the amyloid nucleation score amounted to 1.23 ± 0.095.

With KAQEHPA, the amyloid nucleation score result is “inactive”.

Consider VLLGAVYKQNLANQYYSNLY, for which the amyloid nucleation score result is “inactive”.

For GIFVSMTLFILKILFARYVR, the amyloid nucleation score result is “inactive”.

On to ALQFATVDGKVLSI, for which the amyloid nucleation score result was “inactive”.

With VEWLTSLVVIFWNFGKNKFL, the amyloid nucleation score entry is “inactive”.

In the case of VRTDYWVGYVIFYHIVSRGL, the amyloid nucleation score result was “inactive”.

Turning to WLELVSCS, the amyloid nucleation score entry was “inactive”.

As to FLCIVSAYF, the amyloid nucleation score entry was “inactive”.

As for MLLFACQRLQLVALLGARML, the amyloid nucleation score result was “inactive”.

Take GNPRNMTVDDSDGKSFYFFY: the amyloid nucleation score result is “inactive”.

As to HSATASFHAADWSLKFMDGP, the amyloid nucleation score stood at 0.326 ± 0.23.

In the case of NIRWGTYVSKFVLYLAITTR, the amyloid nucleation score entry was “inactive”.

As to SSAPEQRF, the amyloid nucleation score result is “inactive”.

PTNWLVFYFCSGYAFNSFED gave an amyloid nucleation score of 3.31 ± 0.074.

With YALYCVFTGNSWQSVLRHRY, the amyloid nucleation score is 1.32 ± 0.095.

In the case of LNYIIRRLIVIILFSQHQYY, the amyloid nucleation score result is “inactive”.

In the case of IPCMG, the amyloid nucleation score result is “inactive”.

As for SCNVVLRFGAMIYTL, the amyloid nucleation score result is “inactive”.

For RSVKSIDSHMAKESF, the amyloid nucleation score result is “inactive”.

Consider VRFYVLSPKDFWAFLKILFR, for which the amyloid nucleation score result was “inactive”.

With QSRMLELS, the amyloid nucleation score entry is “inactive”.

On to VGHPFNCSLDCF, for which the amyloid nucleation score result was “inactive”.

Take SLWHMRVWMLCCKGPKTWRF: the amyloid nucleation score entry is “inactive”.

On to ISEVESWPFHCGYGNI, for which the amyloid nucleation score turned out to be 0.467 ± 0.28.

For the substance SGFFMMVYRR, the amyloid nucleation score was -0.364 ± 0.75.

With VQGRYLRRVCMRMVPLRRTD, the amyloid nucleation score result is “inactive”.

In the case of PGHIYVML, the amyloid nucleation score result is “inactive”.

As for KCAVDTV, the amyloid nucleation score result is “inactive”.

SNDHKITD: the amyloid nucleation score entry is “inactive”.

Take YSGKNLVRSTAGGAVKPVC: the amyloid nucleation score result was “inactive”.

With SKVACTRLDCMVFKCGTS, the amyloid nucleation score entry is “inactive”.

On to STNWSILFQDHSTTFFLMCA, for which the amyloid nucleation score was 0.279 ± 0.2.

Consider CFNRITDC, for which the amyloid nucleation score entry was “inactive”.

In the case of MEINGALRYMH, the amyloid nucleation score result was “inactive”.

As to IDELLSLQLHRIHKLLEMHG, the amyloid nucleation score entry was “inactive”.

On to RVCFLRINDGR, for which the amyloid nucleation score worked out at 0.06 ± 0.49.

Consider GAGPGLITMSNSN, for which the amyloid nucleation score result was “inactive”.

Turning to IVQLHDIVDS, the amyloid nucleation score was -0.168 ± 0.9.

ICPWDIQRINMLMGRVDWLR: the amyloid nucleation score result was “inactive”.

As for GTGRSECNCMQGTHGLGICS, the amyloid nucleation score was -0.184 ± 1.5.

For the substance VMFLEDSVFV, the amyloid nucleation score result was “inactive”.

VYKWECKDRKYGWRYCAETW: the amyloid nucleation score result is “inactive”.

With SFKQIIDRFTSSFIVIFGLR, the amyloid nucleation score entry was “inactive”.

Regarding AYRINRTTDRIIIDSGDVVV, the amyloid nucleation score entry is “inactive”.

As to ELIKCFFYYNDVGV, the amyloid nucleation score result was “inactive”.

As for SNGAGC, the amyloid nucleation score result is “inactive”.

As to KLLRQNSY, the amyloid nucleation score entry is “inactive”.

For PDGTQINFN, the amyloid nucleation score result is “inactive”.

On to ISCALHYDSVRKRYVVSGQL, for which the amyloid nucleation score entry is “inactive”.

Turning to LPPFAWPRMIPWWGRAKVIS, the amyloid nucleation score result was “inactive”.

For the substance PKIVYLLAFIVKIELVILTD, the amyloid nucleation score result is “inactive”.

As for ACGCYVSEIPWLRDRIKFWQ, the amyloid nucleation score entry is “inactive”.

VNTFNFWCI displayed an amyloid nucleation score of 2.7 ± 0.081.

Turning to RKLCINGCVFTAMREFC, the amyloid nucleation score result was “inactive”.

As for PRCDYYQ, the amyloid nucleation score result was “inactive”.

Substance NFFAACNMMVLPFSMDFCSR yielded an amyloid nucleation score of 2.77 ± 0.071.

VSPVGSSRWWHDLHVSLETS: the amyloid nucleation score result was “inactive”.

QFAKIPIALTSVYRIKDGLY: the amyloid nucleation score entry is “inactive”.

Consider NAYVEGRSWVLVIENKDFAV, for which the amyloid nucleation score entry was “inactive”.

Take YFSWLSLHVFVSGFVRIVCR: the amyloid nucleation score result was “inactive”.

On to LENNIRSDSTFSTWTHDQCQ, for which the amyloid nucleation score result is “inactive”.

LDAWRWMSLTADYGKSLVTR: the amyloid nucleation score result is “inactive”.

On to VFVLCSSLYEGFTYYRWISF, for which the amyloid nucleation score result was “inactive”.

TSYNFTQLTPILVKLMQMNL: the amyloid nucleation score result is “inactive”.

On to YLFHSEGHWRDPHSLPSYLT, for which the amyloid nucleation score result is “inactive”.

As for LWGYGL, the amyloid nucleation score result is “inactive”.

For MTDFKSTLSTTSMFTGESLI, the amyloid nucleation score result was “inactive”.

The substance EIMGICTLTVIFCKC yielded an amyloid nucleation score of 1.58 ± 0.1.

Turning to STLFSPR, the amyloid nucleation score came out at 0.922 ± 0.14.

FVQNDNYKWVWL: the amyloid nucleation score result is “inactive”.

As to GRVMVWIFIFMMGGMQANLS, the amyloid nucleation score result is “inactive”.

The substance NLFVNL returned an amyloid nucleation score of 1.13 ± 0.15.

In the case of FTFNSWSSWWNTSSFLIKGQ, the amyloid nucleation score result was “inactive”.

For the substance FSMSPSTTYRAFGHYSPGQH, the amyloid nucleation score was -0.074 ± 0.5.

As to WRACHSRSSVVNWISLPDYS, the amyloid nucleation score result is “inactive”.

Regarding NNIVNSLYFEMGYGVN, the amyloid nucleation score result was “inactive”.

Turning to IFRSHMQSLGK, the amyloid nucleation score result was “inactive”.

As to LTMPWTAYCPFKCFLLRADS, the amyloid nucleation score entry is “inactive”.

For DNLTVTFRCLHAYLGGLDFD, the amyloid nucleation score result was “inactive”.

Consider GGVHDSLNIYGFRYGLRKGV, for which the amyloid nucleation score result is “inactive”.

Regarding HVTSVMIFIIASIMYVEIKY, the amyloid nucleation score came to 0.339 ± 0.34.

In the case of VYKDHAIVLCWVVK, the amyloid nucleation score was -0.437 ± 0.56.

Consider PECFVTGIRGTSCCRESVD, for which the amyloid nucleation score result was “inactive”.

Consider LKYSDSSDI, for which the amyloid nucleation score stood at 0.235 ± 0.26.

For FQPSSASPIGWIGMSAFDSW, the amyloid nucleation score entry is “inactive”.

Regarding RQHFRYHGIFAEFGSTFVRS, the amyloid nucleation score result is “inactive”.

With PNIMCYLVAMCVGLKFPARW, the amyloid nucleation score result was “inactive”.

On to NMQLVYDRMDE, for which the amyloid nucleation score result was “inactive”.

As to ISTFVLNDAMLRRWET, the amyloid nucleation score entry was “inactive”.

On to NMTTLVKTMEDNMDSCISGV, for which the amyloid nucleation score is 1.12 ± 0.11.

Substance NMCSFFFRVSPVLQVQVSLV yielded an amyloid nucleation score of 1.61 ± 0.075.

For KAIDFADDELRPIYMTFRVQ, the amyloid nucleation score entry was “inactive”.

For the substance ALVSK, the amyloid nucleation score result is “inactive”.

As to WVVEQVDLLSGMVIGLKNSR, the amyloid nucleation score entry was “inactive”.

Regarding TCCNQRFGVRWNIYYGSDVW, the amyloid nucleation score was 0.742 ± 0.15.

On to VVGNSCVYPVGPRFAE, for which the amyloid nucleation score is -0.454 ± 0.9.

Take KYKAWMVCHTHWSTVKVKRL: the amyloid nucleation score result is “inactive”.

In the case of SMLQAMEYYNIGIVYNHKIW, the amyloid nucleation score entry was “inactive”.
